Results on 8 molecules are retold here after patent US20190060430A1 (published 2019).

Holding throughout (assay): cytokine release
The target in experiment [1] is T1, hCMV pp65 peptide on HLA-DRB1*07:01 (human).
T1 peptide: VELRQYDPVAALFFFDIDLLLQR

The target in experiment [2] is T2, hCMV pp65 peptide on HLA-DRB1*07:01 (human).
T2 peptide: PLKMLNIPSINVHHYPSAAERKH

Experiment [3] addresses T3, TPTE peptide on HLA-DRB1*13:01 (human).
T3 peptide: IFFDIKLLRNIPRWTHLLR

Experiment [4] concerns the target T4, NY-ESO-1 peptide on HLA-DRB1*04:01 (human).
T4 peptide: CFLPVFLAQPPSGQRR

Experiment [5] deals with NY-ESO-1 peptide on HLA-DRB1*04:01 (human). The source holds these as a separate data set.
The target in experiment [6] is NY-ESO-1 peptide on HLA-DRB1*16:01 (human).
Experiment [7] has as its target NY-ESO-1 peptide on HLA-DRB1*11:01 (human).

B1: TCRCD4-CMV#3 (TCR, V domains shown)
Valpha: AQSVTQLDSQVPVFEEAPVELRCNYSSSVSVYLFWYVQYPNQGLQLLLKYLSGSTLVKGINGFEAEFNKSQTSFHLRKPSVHISDTAEYFCAVSSYGSSNTGKLIFGQGTTLQVKP
Vbeta: NAGVTQTPKFQVLKTGQSMTLQCAQDMNHNSMYWYRQDPGMGLRLIYYSASEGTTDKGEVPNGYNVSRLNKREFSLRLESAAPSQTSVYFCASSTAGGRNYGYTFGSGTRLTVV
As for B1, the binding result in experiment [1] was “recognises”.

B2: TCRCD4-CMV#1 (TCR, V domains shown)
Valpha: KQEVTQIPAALSVPEGENLVLNCSFTDSAIYNLQWFRQDPGKGLTSLLLIQSSQREQTSGRLNASLDKSSGRSTLYIAASQPGDSATYLCAVKDNDMRFGAGTRLTVKP
Vbeta: DTAVSQTPKYLVTQMGNDKSIKCEQNLGHDTMYWYKQDSKKFLKIMFSYNNKELIINETVPNRFSPKSPDKAHLNLHINSLELGDSAVYFCASSQEKRGAFFGQGTRLTVV
As for B2, in experiment [2], the binding result is on record as “recognises”.

B3: TCRCD4-TPT#55 (TCR, V domains shown)
Valpha: AQTVTQSQPEMSVQEAETVTLSCTYDTSESDYYLFWYKQPPSRQMILVIRQEAYKQQNATENRFSVNFQKAAKSFSLKISDSQLGDAAMYFCAYRSAVYNTDKLIFGTGTRLQVFP
Vbeta: KAGVTQTPRYLIKTRGQQVTLSCSPISGHRSVSWYQQTPGQGLQFLFEYFSETQRNKGNFPGRFSGRQFSNSRSEMNVSTLELGDSALYLCASSFSSYNEQFFGPGTRLTVL
With B3, in experiment [3], the binding result is given as “recognises”.

B4: TCRCD4-NY#1 (TCR, V domains shown)
Valpha: GIQVEQSPPDLILQEGANSTLRCNFSDSVNNLQWFHQNPWGQLINLFYIPSGTKQNGRLSATTVATERYSLLYISSSQTTDSGVYFCAVNDYKLSFGAGTTVTVRA
Vbeta: DSGVTQTPKHLITATGQRVTLRCSPRSGDLSVYWYQQSLDQGLQFLIQYYNGEERAKGNILERFSAQQFPDLHSELNLSSLELGDSALYFCASSPGVSGTTEAFFGQGTRLTVV
Take B4: in experiment [4], the binding result is “recognises”.

B5: TCRCD4-NY#3 (TCR, V domains shown)
Valpha: QKEVEQDPGPLSVPEGAIVSLNCTYSNSAFQYFMWYRQYSRKGPELLMYTYSSGNKEDGRFTAQVDKSSKYISLFIRDSQPSDSATYLCAMSKGAQKLVFGQGTRLTINP
Vbeta: EAGVAQSPRYKIIEKRQSVAFWCNPISGHATLYWYQQILGQGPKLLIQFQNNGVVDDSQLPKDRFSAERLKGVDSTLKIQPAKLEDSAVYLCASSLGDSNTGELFFGEGSRLTVL
With B5, the binding result in experiment [5] is on record as “recognises”.

B6: TCRCD4-CMV#5 (TCR, V domains shown)
Valpha: GIQVEQSPPDLILQEGANSTLRCNFSDSVNNLQWFHQNPWGQLINLFYIPSGTKQNGRLSATTVATERYSLLYISSSQTTDSGVYFCAAGSNTGNQFYFGTGTSLTVIP
Vbeta: NAGVTQTPKFRVLKTGQSMTLLCAQDMNHEYMYWYRQDPGMGLRLIHYSVGEGTTAKGEVPDGYNVSRLKKQNFLLGLESAAPSQTSVYFCASSSRGYGTDTQYFGPGTRLTVL
For the molecule B6, the binding result in experiment [1] is “recognises”.

B7: TCRCD4-TPT#87 (TCR, V domains shown)
Valpha: ELKVEQNPLFLSMQEGKNYTIYCNYSTTSDRLYWYRQDPGKSLESLFVLLSNGAVKQEGRLMASLDTKARLSTLHITAAVHDLSATYFCAVDMWNNNARLMFGDGTQLVVKP
Vbeta: KAGVTQTPRYLIKTRGQQVTLSCSPISGHRSVSWYQQTPGQGLQFLFEYFSETQRNKGNFPGRFSGRQFSNSRSEMNVSTLELGDSALYLCASSLAQSGANVLTFGAGSRLTVL
As for B7, the binding result in experiment [3] was “recognises”.

B8: TCRCD4-NY#7 (TCR, V domains shown)
Valpha: AQSVTQLDSQVPVFEEAPVELRCNYSSSVSVYLFWYVQYPNQGLQLLLKYLSGSTLVKGINGFEAEFNKSQTSFHLRKPSVHISDTAEYFCAVSKSGGYQKVTFGTGTKLQVIP
Vbeta: GAVVSQHPSWVICKSGTSVKIECRSLDFQATTMFWYRQFPKQSLMLMATSNEGSKATYEQGVEKDKFLINHASLTLSTLTVTSAHPEDSSFYICSAAPGLAGGQGGSQYFGPGTRLLVL
In the case of B8, the binding result in experiment [6] and in experiment [7] was “recognises” throughout.
